Reference: US20240327530A1 (ICHNOS SCIENCES, published 2024)

What was measured:
[1] = target: T1, Human IL-1RAP, membrane-bound on human cells (HaCaT, dermal fibroblasts, neutrophils, PBMC, whole blood) (human, UniProt Q9NPH3 21-570); experiment: cell-based or functional assay
T1 sequence: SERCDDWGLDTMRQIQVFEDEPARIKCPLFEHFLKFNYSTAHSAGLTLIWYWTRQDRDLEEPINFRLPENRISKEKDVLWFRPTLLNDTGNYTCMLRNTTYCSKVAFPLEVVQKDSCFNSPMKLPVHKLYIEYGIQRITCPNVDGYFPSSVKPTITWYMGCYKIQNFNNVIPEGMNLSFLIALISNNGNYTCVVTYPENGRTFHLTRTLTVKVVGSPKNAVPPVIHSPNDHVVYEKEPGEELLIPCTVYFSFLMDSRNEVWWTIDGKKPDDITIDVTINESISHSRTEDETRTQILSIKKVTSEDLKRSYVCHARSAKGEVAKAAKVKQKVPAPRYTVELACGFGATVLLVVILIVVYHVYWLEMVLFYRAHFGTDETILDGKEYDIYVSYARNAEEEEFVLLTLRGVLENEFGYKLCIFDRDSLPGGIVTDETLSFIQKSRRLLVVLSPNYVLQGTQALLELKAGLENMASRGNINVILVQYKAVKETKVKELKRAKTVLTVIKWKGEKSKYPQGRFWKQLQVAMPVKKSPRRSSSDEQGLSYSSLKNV

[2] = target: T2, Recombinant cynomolgus monkey IL-1RAP-ECD(S21-E359)-avi-his protein (cynomolgus monkey, UniProt P59822 21-359 (rhesus entry)); experiment: SPR, IgG1 LALA captured by anti-human Fc, cyno IL-1RAP-avi-his as analyte, 1:1 fit
T2 construct: also called cyno IL-1RAP-ECD-Avi-His; recombinant cynomolgus monkey IL-1RAP-avi-his protein
T2 sequence: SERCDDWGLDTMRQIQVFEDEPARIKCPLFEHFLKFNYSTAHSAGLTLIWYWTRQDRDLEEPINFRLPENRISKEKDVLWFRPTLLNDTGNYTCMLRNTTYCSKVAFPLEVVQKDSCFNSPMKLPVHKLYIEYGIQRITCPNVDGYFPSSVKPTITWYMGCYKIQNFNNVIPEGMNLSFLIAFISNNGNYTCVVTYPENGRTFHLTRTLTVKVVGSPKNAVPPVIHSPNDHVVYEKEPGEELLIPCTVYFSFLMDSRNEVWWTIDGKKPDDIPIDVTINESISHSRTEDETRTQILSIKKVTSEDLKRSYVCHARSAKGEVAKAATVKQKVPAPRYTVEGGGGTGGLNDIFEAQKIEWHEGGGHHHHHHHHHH
Description: Surface plasmon resonance (SPR) was used to measure the binding affinities of the human IgG1 LALA molecules for human and cynomolgus monkey IL-1RAP. Affinities were measured on a BIACORE™ T200 instrument (BIACORE™, GE […]®) at 25° C. and analyzed with the BIACORE™ T200 Evaluation Software (v3.1). Measurements were performed on Series S CM5 sensor chips (BIACORE™ T200, BIACORE™, GE […]®, catalog no. BR100530) coupled with anti-human IgG Fc (BIACORE™, GE […]®, catalog no. BR100839) using a commercial amine coupling kit (BIACORE™, GE […]®, catalog no. BR100050). SPR measurements were performed with recombinant human IL-1RAP-avi-his protein produced in house (SEQ ID NO. 1) or recombinant cynomolgus monkey IL-1RAP-avi-his protein produced in house (SEQ ID NO. 2). The affinities to human and cynomolgus monkey IL-1RAP were assessed by immobilizing anti-IL-1RAP IgG1 LALA molecules and using IL-1RAP proteins as analyte. Around 150 RU of human IgG1 LALA were captured on fc2 of a Series S CM5 sensor chip coupled with anti-human IgG Fc. Recombinant human IL-1RAP-avi-his protein or recombinant cynomolgus monkey IL-1RAP-avi-his protein was injected in multi cycle kinetic at different concentrations ranging from 0.14 to 100 nM, in HBS-EP+ buffer (BIACORE™, GE […]®, catalog no. BR100669) at a flow rate of 30 μl/min for 3 min on fc1 and fc2 (fc1 being used as reference). Dissociation was monitored for 12 min. After each cycle, the surface was regenerated with 60 μl of regeneration solution provided with anti-human IgG Fc capture kit (BIACORE™, GE […]®, catalog no. BR100839). Experimental data were processed using the 1:1 Langmuir kinetic fitting model. Measurements included zero-concentration samples for referencing. Chi², U- and residual values were used to evaluate the quality of a fit between the experimental data and individual binding models.

human whole blood, IL-1alpha stimulation, IL-6 release, mean EC50 of inhibition [1]: 9.5 nM
human whole blood, IL-1alpha stimulation, IL-8 release, mean EC50 of inhibition [1]: 14.2 nM
human whole blood, IL-1alpha stimulation, MCP-1 release, mean EC50 of inhibition [1]: 11.1 nM
human whole blood, IL-1alpha stimulation, MIP-1alpha release, mean EC50 of inhibition [1]: 15 nM
human whole blood, IL-1alpha stimulation, MIP-1beta release, mean EC50 of inhibition [1]: 89 nM
human whole blood, IL-1beta stimulation, IL-6 release, mean EC50 of inhibition [1]: 8.8 nM
human whole blood, IL-1beta stimulation, IL-8 release, mean EC50 of inhibition [1]: 24.7 nM
human whole blood, IL-1beta stimulation, MCP-1 release, mean EC50 of inhibition [1]: 17.7 nM
human whole blood, IL-1beta stimulation, MIP-1alpha release, mean EC50 of inhibition [1]: 16 nM
human whole blood, IL-1beta stimulation, MIP-1beta release, mean EC50 of inhibition [1]: 53.3 nM
Kd [2]: 0.306 nM
koff [2]: 0.000212 s⁻¹
kon [2]: 692000 M⁻¹ s⁻¹
B1: Anti-IL-1RAP-C8-RecC-ES-IgG1LALA (antibody, V domains shown)
VH: QVQLVQSGAEVKKPGSSVKVSCKASGSPAEPYAIQWVRQAPGQGLEWMGYIIPSLGGYDYAQKFQGRVTITADESTSTAYMELSSLRSEDTAVYYCARGQTLYESGRQFDIWGQGTLVTVSS
VL: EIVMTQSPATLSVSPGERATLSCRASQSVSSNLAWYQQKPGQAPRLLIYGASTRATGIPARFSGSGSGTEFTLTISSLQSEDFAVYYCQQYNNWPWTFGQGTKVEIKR
notes: also called ISB 880-C8-recC-ES
